US20220403048A1 (CANCER RESEARCH TECHNOLOGY, published 2022)
Changes are numbered by the printed parent chain. Read-outs that look alike come from different tables or passages of the source. Each block holds one binder with its values, some of them ahead of it.

Key:
[1] = target: T1, THP-1 lysate derived human trimeric ARG2 (human, UniProt P78540 23-354, limits assumed); experiment: cell-based or functional assay
T1 sequence (looked up): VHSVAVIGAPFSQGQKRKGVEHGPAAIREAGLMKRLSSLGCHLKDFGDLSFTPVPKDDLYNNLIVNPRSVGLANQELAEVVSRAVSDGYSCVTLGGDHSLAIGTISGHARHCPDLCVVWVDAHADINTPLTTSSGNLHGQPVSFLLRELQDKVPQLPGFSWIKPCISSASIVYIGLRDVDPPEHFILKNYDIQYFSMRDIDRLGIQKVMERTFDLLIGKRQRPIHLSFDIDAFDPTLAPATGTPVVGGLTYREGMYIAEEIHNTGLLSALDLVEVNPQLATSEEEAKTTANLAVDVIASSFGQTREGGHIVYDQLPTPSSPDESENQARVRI

[2] = target: T2, recombinant human trimeric ARG2 enzyme (construct not given) (human, UniProt P78540 23-354); experiment: cell-based or functional assay
T2 sequence (looked up): T1 sequence (looked up)

[3] = target: T1, THP-1 lysate derived human trimeric ARG2; experiment: cell-based or functional assay; remark: listed apart in the source
[4] = target: T2, recombinant human trimeric ARG2 enzyme …; experiment: cell-based or functional assay; remark: listed apart in the source
[5] = target: T2, recombinant human trimeric ARG2 enzyme …; experiment: cell-based or functional assay; remark: listed apart in the source
[6] = target: T3, biotinylated recombinant human trimeric ARG2 enzyme (Avi-huARG2-His10) (human, UniProt P78540 23-354, biotinylated); experiment: HTRF epitope competition, scFv titrated, competitor C0020187 IgG, on biotinylated human trimeric ARG2
T3 construct: also called avi-Arg2-His10; bio-ARG2
T3 chain: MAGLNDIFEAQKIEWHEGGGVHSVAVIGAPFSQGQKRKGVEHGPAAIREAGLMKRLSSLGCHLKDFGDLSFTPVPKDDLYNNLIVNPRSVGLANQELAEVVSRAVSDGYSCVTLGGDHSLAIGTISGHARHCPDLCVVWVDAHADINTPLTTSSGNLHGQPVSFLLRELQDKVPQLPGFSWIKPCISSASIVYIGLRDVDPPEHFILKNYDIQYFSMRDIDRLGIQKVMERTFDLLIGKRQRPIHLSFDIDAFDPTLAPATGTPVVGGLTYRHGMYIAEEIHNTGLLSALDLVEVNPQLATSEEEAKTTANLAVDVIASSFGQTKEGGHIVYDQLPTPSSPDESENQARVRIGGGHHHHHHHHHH

B1: C0021144 recombinant human IgG1 (antibody, V domains shown)
VH: EVQLLESGGGLVQPGGSLRLSCAASGFTFRYDYHVWVRQAPGKGLEWVSAISGSGGSTYYADSVKGRFTISRDNSKNTLYLQMNSLRAEDTAVYYCARLRADLGLYMDLWGRGTLVTVSS
VL: QSVLTQPPSVSAAPGQKVTVSCSGSSSNIGNHHVSWYQQLPGTAPKLLIYDTTVLSSGVPDRFSGSKSGTSATLGITGLQTGDEADYYCGTWDELTSNLVFGGGTKLTVL
THP-1 lysate ARG2 EIA IC50 [1]: 10.9 nM

B2: C0021177 recombinant human IgG1 (antibody, V domains shown)
VH: B1 VH with D32E, Y33V, H34A, V35A, S54P, G55A, G56P, S57K, T58G
VL: B1 VL with V3E, S9T, V10A, V20I, H33Y, V59I
THP-1 lysate ARG2 EIA IC50 [1]: 5.17 nM | EC50, In Presence of rhARG2 (T cell proliferation) [2]: 86 nM | Maximum % Proliferation, In Presence of rhARG2 [2]: 84%

B4: C0021181 recombinant human IgG1 (antibody, V domains shown)
VH: B1 VH with Q13R, G26E, G66S
VL: B1 VL with T19A, N31S, H33Y, T52N, T53S, V54E, L55R, S56T, V59I, K106R
THP-1 lysate ARG2 EIA IC50 [1]: 6.93 nM

B5: C0021155 recombinant human IgG1 (antibody, V domains shown)
VH: B1 VH with A23E, S63P
VL: B1 VL with Q1R, V20I, H33Y, V59I, K106R
THP-1 lysate ARG2 EIA IC50 [1]: 9.64 nM

B6: C0021061 recombinant human IgG1 (antibody, V domains shown)
VH: EVQLLESGGGLVQPGGSLRLSCAASGFTFSSYAMSWVRQAPGKGLEWVSAKPTDAGSTYYADSVKGRFTISRDNSKNTLYLQMNSLRAEDTAVYYCARLRADLGLYMDLWGRGTLVTVSS
VL: QSVLTQPPSVSAAPGQKVTISCSGSSSNIGNHYVSWYQQLPGTAPKLLIYNTVYPKSGIPDRFSGSKSGTSATLGITGLQTGDEADYYCGTWDSSLSALVFGGGTKLTVL
IC50 (M) THP-1 ARG2 (healthy human plasma) [3]: 2.9e-09 M | IC50 (M) THP-1 ARG2 (no plasma) [3]: 6.79e-09 M | EC50, In Presence of rhARG2 (T cell proliferation) [4]: 113 nM | Maximum % Proliferation, In Presence of rhARG2 [4]: 83% | THP-1 lysate ARG2 EIA IC50 [1]: 5.81 nM | EC50, In Presence of rhARG2 (T cell proliferation) [2]: 149 nM | Maximum % Proliferation, In Presence of rhARG2 [2]: 110%

B7: C0021022 scFv (scFv, V domains shown)
VH: EVQLLESGGGLVQPGGSLRLSCAASGFTFSSYAMSWVRQAPGKGPEWVSAISGFSPYYADSVKGRFTISRDNSKNTLYLQMNSLRAEDTAVYYCARLRADLGLYMDLWGRGTLVTVSS
VL: B6 VL with N51D, T52N, V53S, Y54E, P55R, K56P
notes: scFv
Trimeric human ARG2 EIA IC50 [5]: 106 nM | IC50 [6]: 65.9 nM

B8: C0021022 recombinant human IgG1 (antibody, V domains shown)
VH: B7 VH
VL: B6 VL with N51D, T52N, V53S, Y54E, P55R, K56P
IC50 (M) THP-1 ARG2 (healthy human plasma) [3]: 2.71e-09 M | IC50 (M) THP-1 ARG2 (no plasma) [3]: 5.81e-09 M | EC50, In Presence of rhARG2 (T cell proliferation) [4]: 132 nM | Maximum % Proliferation, In Presence of rhARG2 [4]: 77%

B10: C0021133 scFv (scFv, V domains shown)
VH: B1 VH with Y33H
VL: B1 VL with H33Y, V59I
notes: scFv
Trimeric human ARG2 EIA IC50 [5]: 281 nM | IC50 [6]: 43.3 nM

B12: C0021141 scFv (scFv, V domains shown)
VH: B1 VH with R30Y, Y31P, Y33P, H34Q, V35G, I51Y, S52G, G53Y, S54G, G55I
VL: B6 VL with K17E, G30D, N51D, T52N, V53S, Y54E, P55R, K56P
notes: scFv
Trimeric human ARG2 EIA IC50 [5]: 109 nM | IC50 [6]: 51.1 nM

B13: C0021139 recombinant human IgG1 (antibody, V domains shown)
VH: B1 VH with R30Q, H34Q
VL: B1 VL with V20I, H33Y, T52N, T53S, V54E, L55R, S56T, V59I
IC50 (M) THP-1 ARG2 (healthy human plasma) [3]: 2.02e-09 M | IC50 (M) THP-1 ARG2 (no plasma) [3]: 5.75e-09 M | EC50, In Presence of rhARG2 (T cell proliferation) [4]: 111 nM | Maximum % Proliferation, In Presence of rhARG2 [4]: 67%

B14: C0021124 scFv (scFv, V domains shown)
VH: B6 VH with K51I, P52S, T53Y, D54H, A55P, M83I
VL: QSVLTQLPSVSAAPGQKVTISCSGSSSNIGNHYVSWYQQLPGTAPKLLIYDNSERPSGIPDRFSGSKSGTSATLGITGLQTGDEADYYCGTWDSDRVNLEFGGGTKLTVL
notes: scFv
Trimeric human ARG2 EIA IC50 [5]: 375 nM | IC50 [6]: 50.5 nM

B15: C0021139 scFv (scFv, V domains shown)
VH: B1 VH with R30Q, H34Q
VL: B14 VL with L7P, P56T, S94E, D95L, R96T, V97S, E100V
notes: scFv
Trimeric human ARG2 EIA IC50 [5]: 188 nM | IC50 [6]: 40.1 nM

B17: C0021101 scFv (scFv, V domains shown)
VH: B7 VH
VL: B6 VL with T52N, V53R, Y54S, K56T
notes: scFv
Trimeric human ARG2 EIA IC50 [5]: 64.8 nM | IC50 [6]: 40.8 nM

B18: C0021065 recombinant human IgG1 (antibody, V domains shown)
VH: B7 VH with K74R
VL: B6 VL with N51D, V53D, Y54H, P55M, K56A
IC50 (M) THP-1 ARG2 (healthy human plasma) [3]: 2.98e-09 M | IC50 (M) THP-1 ARG2 (no plasma) [3]: 5.99e-09 M | EC50, In Presence of rhARG2 (T cell proliferation) [4]: 136 nM | Maximum % Proliferation, In Presence of rhARG2 [4]: 87%

B19: C0021092 recombinant human IgG1 (antibody, V domains shown)
VH: B6 VH with S31R, K51H, P52T, T53H, D54S, A55P
VL: B6 VL with T52S, Y54A, P55R, K56P
IC50 (M) THP-1 ARG2 (healthy human plasma) [3]: 2.82e-09 M | IC50 (M) THP-1 ARG2 (no plasma) [3]: 6.56e-09 M | EC50, In Presence of rhARG2 (T cell proliferation) [4]: 116 nM | Maximum % Proliferation, In Presence of rhARG2 [4]: 77%

B24: C0021129 scFv (scFv, V domains shown)
VH: B7 VH with Q13R, P45L, Y57F
VL: B14 VL with L7P, G75D, S94E, D95T, R96A, V97A, N98E, E100V
notes: scFv
Trimeric human ARG2 EIA IC50 [5]: 313 nM | IC50 [6]: 45 nM

Other lines, results leading:

THP-1 lysate ARG2 EIA IC50 [1]: 4.59 nM | EC50, In Presence of rhARG2 (T cell proliferation) [2]: 137 nM | Maximum % Proliferation, In Presence of rhARG2 [2]: 91%
B3: C0021180 recombinant human IgG1 (antibody, V domains shown)
VH: B1 VH with D32E, Y33V, H34A, V35A, S54P, G55I, G56P, S57K, T58G
VL: QSVLTQPPTVSAAPGRKVTISCSGSSSNIGDHHVSWYQQLPGAAPKLLIYDTDHMASGIPDRFSGSRSGTSATLGITGLQTGDEADYYCGTWDSSLSALVFGGGTKLTVL

Trimeric human ARG2 EIA IC50 [5]: 169 nM | IC50 [6]: 44.5 nM
B9: C0021128 scFv (scFv, V domains shown)
VH: B1 VH with R30Q, D32E, Y33V, H34A, V35A, S54P, G55I, G56P, S57K, T58G
VL: B6 VL with N51D, T52N, V53A, Y54I, P55E, K56S, E84G, S95N
notes: scFv

IC50 (M) THP-1 ARG2 (healthy human plasma) [3]: 3.7e-09 M | IC50 (M) THP-1 ARG2 (no plasma) [3]: 6.68e-09 M | EC50, In Presence of rhARG2 (T cell proliferation) [4]: 101 nM | Maximum % Proliferation, In Presence of rhARG2 [4]: 73% | THP-1 lysate ARG2 EIA IC50 [1]: 7.38 nM
B11: C0021133 recombinant human IgG1 (antibody, V domains shown)
VH: B1 VH with Y33H
VL: B1 VL with H33Y, V59I

Trimeric human ARG2 EIA IC50 [5]: 143 nM | IC50 [6]: 74.7 nM
B16: C0021065 scFv (scFv, V domains shown)
VH: B7 VH with K74R
VL: B6 VL with N51D, V53D, Y54H, P55M, K56A
notes: scFv

Trimeric human ARG2 EIA IC50 [5]: 220 nM | IC50 [6]: 52 nM
B20: C0021135 scFv (scFv, V domains shown)
VH: B1 VH with T28A, D32E, H34I, V35Q
VL: B14 VL with L7P, P45H, D95S, R96L, V97S, N98A, E100V
notes: scFv

Trimeric human ARG2 EIA IC50 [5]: 84.1 nM | IC50 [6]: 41.7 nM
B21: C0021118 scFv (scFv, V domains shown)
VH: B6 VH with K51S, P52L, D54N, A55P
VL: B14 VL with L7P, G90A, W92Y, S94T, D95N, R96L, V97S, N98A, E100V
notes: scFv

Trimeric human ARG2 EIA IC50 [5]: 57.8 nM | IC50 [6]: 35.2 nM
B22: C0021096 scFv (scFv, V domains shown)
VH: B7 VH with P45L, F54Y, P56G
VL: B6 VL with V53E, Y54R, P55R, K56M
notes: scFv

Trimeric human ARG2 EIA IC50 [5]: 251 nM | IC50 [6]: 45.7 nM
B23: C0021131 scFv (scFv, V domains shown)
VH: B1 VH with R30P, H34M, V35G
VL: B14 VL with L7P, S94E, D95L, R96T, V97S, E100V
notes: scFv
